Among the data in patent EP4350345A2 are binding as % of Reference Sequence (=100%) values, retold here.

The target in assay [1] is purified interference factor(s) from serum of Donor A. The experiment in a line: SPR, interference factor on CM5 chip. On the technique in general: SPR reads the build-up and loss of mass on a sensor chip optically.
Assay [2] has as its target purified interference factor(s) from serum of Donor B. The experiment in a line: SPR, interference factor on CM5 chip.
In assay [3] the target is monoclonal antibody 21-4-3. The experiment in a line: SPR, 21-4-3 captured via anti-mouse IgG, 500 nM.
Assay [4] deals with purified interference factor(s) from serum of Donor C. The experiment in a line: SPR, interference factor on CM5 chip.

Sequence of monoclonal antibody 21-4-3 (VH, as listed by the source, chain 1 of 2): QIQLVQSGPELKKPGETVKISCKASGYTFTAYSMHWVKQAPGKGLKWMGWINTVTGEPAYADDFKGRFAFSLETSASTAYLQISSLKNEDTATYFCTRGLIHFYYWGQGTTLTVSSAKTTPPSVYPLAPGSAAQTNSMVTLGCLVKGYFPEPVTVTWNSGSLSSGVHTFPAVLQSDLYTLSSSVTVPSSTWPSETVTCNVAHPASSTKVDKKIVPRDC
Sequence of monoclonal antibody 21-4-3 (VL, as listed by the source, chain 2 of 2): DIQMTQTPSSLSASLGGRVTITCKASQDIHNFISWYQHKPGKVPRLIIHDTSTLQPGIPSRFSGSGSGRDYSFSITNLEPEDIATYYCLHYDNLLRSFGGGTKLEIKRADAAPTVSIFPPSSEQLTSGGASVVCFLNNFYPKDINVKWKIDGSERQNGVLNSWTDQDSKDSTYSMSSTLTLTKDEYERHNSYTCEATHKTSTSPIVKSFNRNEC

B1: Nanobody or Nanobody construct of SEQ ID NO: 42 (VHH)
chain: EVQLVESGGGLVQPGGSLRLSCAASGRTFSYNPMGWFRQAPGKGRELVAAISRTGGSTYYPDSVEGRFTISRDNAKRMVYLQMNSLRAEDTAVYYCAAAGVRAEDGRVRTLPSEYTFWGQGTQVTVSSAAAEVQLVESGGGLVQPGGSLRLSCAASGRTFSYNPMGWFRQAPGKGRELVAAISRTGGSTYYPDSVEGRFTISRDNAKRMVYLQMNSLRAEDTAVYYCAAAGVRAEDGRVRTLPSEYTFWGQGTQVTVSSA
Regarding B1, the binding as % of Reference Sequence (=100%) in assay [1] was 1%; in assay [2], 4%.

B2: Nanobody or Nanobody construct of SEQ ID NO: 48 (VHH)
VHH: EVQLVESGGGLVQPGGSLRLSCIASGLPFSTKSMGWFRQAPGKEREFVARISPGGTSRYYGDFVKGRFAISRDNAKNTTWLQMNSLKAEDTAVYYCASGERSTYIGSNYYRTNEYDYWGTGTQVTVSS
With B2, the binding as % of Reference Sequence (=100%) in assay [3] is 3%; in assay [1] it was 0%.

B3: Nanobody or Nanobody construct of SEQ ID NO: 47 (VHH)
VHH: EVQLVESGGGLVQPGGSLRLSCAASGSVFKINVMAWYRQAPGKGRELVAGIISGGSTSYADSVKGRFTISRDNAKNTLYLQMNSLRPEDTAVYYCAFITTESDYDLGRRYWGQGTLVTVSS
In the case of B3, the binding as % of Reference Sequence (=100%) came to 4% in assay [3] and 1% in assay [1].

B4: Nanobody or Nanobody construct of SEQ ID NO: 43 (VHH)
chain: DVQLVESGGGLVQPGGSLRLSCAASGFILDYYAIGWFRQAPGKEREGVLCIDASDDITYYADSVKGRFTISRDNSKNTVYLQMNSLRPEDTAVYYCATPIGLSSSCLLEYDYDYWGQGTLVTVSSGGGGSGGGSEVQLLESGGGLVQPGGSLRLSCAASGFTFRSFGMSWVRQAPGKGPEWVSSISGSGSDTLYADSVKGRFTISRDNSKNTLYLQMNSLRPEDTAVYYCTIGGSLSRSSQGTLVTVSSA
Regarding B4, the figures for the binding as % of Reference Sequence (=100%) in assay [3], in assay [1] and in assay [2] were 3%, 3% and 20%, respectively.

B5: Nanobody or Nanobody construct of SEQ ID NO: 45 (VHH)
VHH: EVQLVESGGGLVQAGGSLRLSCAASRSIGRLDRMGWYRHRTGEPRELVATITGGSSINYGDFVKGRFTISIDNAKNTVYLQMNNLKPEDTAVYYCNFNKYVTSRDTWGQGTQVTVSS
As to B5, the binding as % of Reference Sequence (=100%) in assay [3] is 22%; in assay [1] it was 0%.

B6: Nanobody or Nanobody construct of SEQ ID NO: 71 (VHH)
VHH: EVQLVESGGGLVQPGGSLRLSCAASRSIGRLDRMGWYRHRPGEPRELVATITGGSSINYGDSVKGRFTISIDNSKNTVYLQMNSLRPEDTAVYYCNFNKYVTSRDTWGQGTLVTVSG
As for B6, the binding as % of Reference Sequence (=100%) in assay [3] was 44%; in assay [1], 88%; in assay [4], 87%; in assay [2], 105%.

B7: Nanobody or Nanobody construct of SEQ ID NO: 83 (VHH)
VHH: EVQLVESGGGLVQPGGSLRLSCAASRSIGRLDRMGWYRHRPGEPRELVATITGGSSINYGDSVKGRFTISIDNSKNTVYLQMNSLRPEDAAVYYCNFNKYVTSRDTWGQGTLVTVSS
On to B7, for which the binding as % of Reference Sequence (=100%) in assay [3] amounted to 79%; in assay [1] it was 56%; in assay [4], 61%; in assay [2], 73%.

B8: Nanobody or Nanobody construct of SEQ ID NO: 78 (VHH)
VHH: EVQLVESGGGLVRPGGSLRLSCAASRSIGRLDRMGWYRHRPGEPRELVATITGGSSINYGDSVKGRFTISIDNSKNTVYLQMNSLRPEDTAVYYCNFNKYVTSRDTWGQGTLVTVSS
B8: the binding as % of Reference Sequence (=100%) worked out at 1% in assay [3], 96% in assay [1], 100% in assay [4] and 96% in assay [2].

B9: Nanobody or Nanobody construct of SEQ ID NO: 70 (VHH)
VHH: EVQLVESGGGLVQPGGSLRLSCAASRSIGRLDRMGWYRHRPGEPRELVATITGGSSINYGDSVKGRFTISIDNSKNTVYLQMNSLRPEDTAVYYCNFNKYVTSRDTWGQGTLVQVSS
As to B9, the binding as % of Reference Sequence (=100%) amounted to 106% in assay [3], 90% in assay [1], 98% in assay [4] and 105% in assay [2].

B10: Nanobody or Nanobody construct of SEQ ID NO: 84 (VHH)
VHH: EVQLVESGGGLVQPGGSLRLSCAASRSIGRLDRMGWYRHRPGEPRELVATITGGSSINYGDSVKGRFTISIDNSKNTVYLQMNSLRPEDTAVYYCNFNKYVTSRDTWGQGTLVTVGS
On to B10, for which the binding as % of Reference Sequence (=100%) in assay [3] turned out to be 91%; in assay [1] it was 84%; in assay [4] it was 83%; in assay [2], 50%.

B11: Nanobody or Nanobody construct of SEQ ID NO: 82 (VHH)
VHH: EVQLVESGGGLVQPGGSLRLSCAASRSIGRLDRMGWYRHRPGEPRELVATITGGSSINYGDSVKGRFTISIDNSKNTVYLQMNSLRAEDTAVYYCNFNKYVTSRDTWGQGTLVTVSS
Consider B11, for which the binding as % of Reference Sequence (=100%) in assay [3] was 56%; in assay [1], 96%; in assay [4], 100%; in assay [2], 80%.

B12: Nanobody or Nanobody construct of SEQ ID NO: 65 (VHH)
VHH: EVQLVESGGGLVQAGGSLRLSCAASRSIGRLDRMGWYRHRPGEPRELVATITGGSSINYGDSVKGRFTISIDNSKNTVYLQMNSLRPEDTAVYYCNFNKYVTSRDTWGQGTLVTVSS
With B12, the binding as % of Reference Sequence (=100%) stood at 23% in assay [3], 73% in assay [1], 64% in assay [4] and 121% in assay [2].

B13: Nanobody or Nanobody construct of SEQ ID NO: 69 (VHH)
VHH: EVQLVESGGGLVQPGGSLRLSCAASRSIGRLDRMGWYRHRPGEPRELVATITGGSSINYGDSVKGRFTISIDNSKNTVYLQMNSLRPEDTAVYYCNFNKYVTSRDTWGQGTQVTVSS
As for B13, the binding as % of Reference Sequence (=100%) in assay [3] was 106%; in assay [1], 80%; in assay [4], 84%; in assay [2], 120%.

B14: Nanobody or Nanobody construct of SEQ ID NO: 80 (VHH)
VHH: EVQLVESGGGLVQPGGSLRLSCAASRSIGRLDRMGWYRHRPGEPRELVATITGGSSINYGDSVKGRFTISIDNSKNTVYLQMNSLRPEDTAVYYCNFNKYVTSRDTWGQGTLVQVGG
Turning to B14, the binding as % of Reference Sequence (=100%) in assay [3] is 51%; in assay [1], 65%; in assay [4] it was 58%; in assay [2], 5%.

B15: Nanobody or Nanobody construct of SEQ ID NO: 66 (VHH)
VHH: EVQLVESGGGSVQPGGSLRLSCAASRSIGRLDRMGWYRHRPGEPRELVATITGGSSINYGDSVKGRFTISIDNSKNTVYLQMNSLRPEDTAVYYCNFNKYVTSRDTWGQGTLVTVSS
Consider B15, for which the binding as % of Reference Sequence (=100%) in assay [3] came out at 48%; in assay [1] it was 81%; in assay [4] it was 84%; in assay [2], 29%.

B16: Nanobody or Nanobody construct of SEQ ID NO: 81 (VHH)
VHH: EVQLVESGGGVVQPGGSLRLSCAASRSIGRLDRMGWYRHRPGEPRELVATITGGSSINYGDSVKGRFTISIDNSKNTVYLQMNSLRPEDTAVYYCNFNKYVTSRDTWGQGTLVTVSS
Regarding B16, the binding as % of Reference Sequence (=100%) in assay [3] was 75%; in assay [1] it was 94%; in assay [4], 89%; in assay [2], 50%.

B17: Nanobody or Nanobody construct of SEQ ID NO: 68 (VHH)
VHH: EVQLVESGGGLVQAGGSLRLSCAASRSIGRLDRMGWYRHRPGEPRELVATITGGSSINYGDSVKGRFTISIDNSKNTVYLQMNSLRPEDTAVYYCNFNKYVTSRDTWGQGTQVTVSS
As for B17, the binding as % of Reference Sequence (=100%) was found to be 26% in assay [3], 38% in assay [1], 49% in assay [4] and 115% in assay [2].

B18: Nanobody or Nanobody construct of SEQ ID NO: 67 (VHH)
VHH: EVQLVESGGGLVQPGGSLRLSCAASRSIGRLDRMGWYRHRPGEPRELVATITGGSSINYGDSVKGRFTISIDNSKNTVYLQMNSLKPEDTAVYYCNFNKYVTSRDTWGQGTLVTVSS
Take B18: the binding as % of Reference Sequence (=100%) worked out at 101% in assay [3], 102% in assay [1], 96% in assay [4] and 117% in assay [2].

B19: Nanobody or Nanobody construct of SEQ ID NO: 49 (VHH)
VHH: EVQLLESGGGLVQPGGSLRLSCAASGLPFSTKSMGWFRQAPGKGREFVSRISPGGTSRYYGDFVKGRFTISRDNSKNTLYLQMNSLRAEDTAVYYCASGERSTYIGSNYYRTNEYDYWGQGTLVTVSS
As for B19, the values for the binding as % of Reference Sequence (=100%) in assay [3] and in assay [1] were 4% and 0%, respectively.

B20: Nanobody or Nanobody construct of SEQ ID NO: 38 (VHH)
chain: EVQLVESGGGLVQPGGSLRLSCAASGFTFSSYAMSWVRQAPGKGLEWVSGIKSSGDSTRYAGSVKGRFTISRDNAKNTLYLQMNSLRPEDTAVYYCAKSRVSRTGLYTYDNRGQGTLVTVSSGGGGSGGGGSGGGGSGGGGSEVQLVESGGGLVQPGGSLRLSCAASGRTFNNYAMGWFRQAPGKEREFVAAITRSGVRSGVSAIYGDSVKDRFTISRDNAKNTLYLQMNSLRPEDTAVYYCAASAIGSGALRRFEYDYSGQGTLVTVSSA
For the molecule B20, the binding as % of Reference Sequence (=100%) in assay [1] worked out at 9%; in assay [4] it was 7%; in assay [2], 25%.
